First the molecules themselves.
T1: CD55 (UniProt P08174 35-353, limits assumed)
T1 construct: whole, on cells; also called CD55 on Rituximab resistant Raji cells (RRCL)
T1 sequence (looked up): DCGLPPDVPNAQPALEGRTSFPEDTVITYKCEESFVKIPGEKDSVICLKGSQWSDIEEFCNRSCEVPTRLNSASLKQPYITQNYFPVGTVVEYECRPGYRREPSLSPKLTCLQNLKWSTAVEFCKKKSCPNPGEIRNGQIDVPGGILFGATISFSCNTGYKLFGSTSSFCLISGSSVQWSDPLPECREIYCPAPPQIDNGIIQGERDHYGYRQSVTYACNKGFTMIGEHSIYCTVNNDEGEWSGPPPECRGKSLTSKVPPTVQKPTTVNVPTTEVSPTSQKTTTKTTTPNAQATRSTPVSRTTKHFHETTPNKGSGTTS

B1: CD20/CD3 BsMab with common VL (SEQ ID NO: 3) N93L (bispecific antibody, V domains shown)
VH 1: QVQLQQPGAELVKPGASVKMSCKASGYTFTSYNMHWVKQTPGRGLEWIGAIYPGNGDTSYNQKFKGKATLTADKSSSTAYMQLSSLRSEDSAVYYCARSTYYGGDWYFNVWGAGTTVTVSA
VH 2: EVQLQESGAELARPGASVKMSCKASGYTFTSYTMHWVKQRPGEGLEWIGYINPSSGYTKYNQKFKDKATLTADKSSSTAYMELSSLTSEDSAVYYCARWQDYDVYFDYWGEGTTLTVSS
VL: QIVLSQSPAILSASPGEKVTMTCRASSSVSYIHWFQQKPGSSPKPWIYATSNLASGVPVRFSGSGSGTSYSLTISRVEAEDAATYYCQQWTSLPPTFGGGTKLEIKR
B2: CD20/CD3 BsMab with common VL (SEQ ID NO: 3) Q88M (bispecific antibody, V domains shown)
VH 1: QVQLQQPGAELVKPGASVKMSCKASGYTFTSYNMHWVKQTPGRGLEWIGAIYPGNGDTSYNQKFKGKATLTADKSSSTAYMQLSSLRSEDSAVYYCARSTYYGGDWYFNVWGAGTTVTVSA
VH 2: EVQLQESGAELARPGASVKMSCKASGYTFTSYTMHWVKQRPGEGLEWIGYINPSSGYTKYNQKFKDKATLTADKSSSTAYMELSSLTSEDSAVYYCARWQDYDVYFDYWGEGTTLTVSS
VL: QIVLSQSPAILSASPGEKVTMTCRASSSVSYIHWFQQKPGSSPKPWIYATSNLASGVPVRFSGSGSGTSYSLTISRVEAEDAATYYCMQWTSNPPTFGGGTKLEIKR
B3: CD20/CD3 BsMab with common VL (SEQ ID NO: 3) Q88Y (bispecific antibody, V domains shown)
VH 1: QVQLQQPGAELVKPGASVKMSCKASGYTFTSYNMHWVKQTPGRGLEWIGAIYPGNGDTSYNQKFKGKATLTADKSSSTAYMQLSSLRSEDSAVYYCARSTYYGGDWYFNVWGAGTTVTVSA
VH 2: EVQLQESGAELARPGASVKMSCKASGYTFTSYTMHWVKQRPGEGLEWIGYINPSSGYTKYNQKFKDKATLTADKSSSTAYMELSSLTSEDSAVYYCARWQDYDVYFDYWGEGTTLTVSS
VL: QIVLSQSPAILSASPGEKVTMTCRASSSVSYIHWFQQKPGSSPKPWIYATSNLASGVPVRFSGSGSGTSYSLTISRVEAEDAATYYCYQWTSNPPTFGGGTKLEIKR
B4: CD20/CD3 BsMab with common VL (SEQ ID NO: 3) Q88V (bispecific antibody, V domains shown)
VH 1: QVQLQQPGAELVKPGASVKMSCKASGYTFTSYNMHWVKQTPGRGLEWIGAIYPGNGDTSYNQKFKGKATLTADKSSSTAYMQLSSLRSEDSAVYYCARSTYYGGDWYFNVWGAGTTVTVSA
VH 2: EVQLQESGAELARPGASVKMSCKASGYTFTSYTMHWVKQRPGEGLEWIGYINPSSGYTKYNQKFKDKATLTADKSSSTAYMELSSLTSEDSAVYYCARWQDYDVYFDYWGEGTTLTVSS
VL: QIVLSQSPAILSASPGEKVTMTCRASSSVSYIHWFQQKPGSSPKPWIYATSNLASGVPVRFSGSGSGTSYSLTISRVEAEDAATYYCVQWTSNPPTFGGGTKLEIKR
B5: CD20/CD3 BsMab with common VL (SEQ ID NO: 3) N93C (bispecific antibody, V domains shown)
VH 1: QVQLQQPGAELVKPGASVKMSCKASGYTFTSYNMHWVKQTPGRGLEWIGAIYPGNGDTSYNQKFKGKATLTADKSSSTAYMQLSSLRSEDSAVYYCARSTYYGGDWYFNVWGAGTTVTVSA
VH 2: EVQLQESGAELARPGASVKMSCKASGYTFTSYTMHWVKQRPGEGLEWIGYINPSSGYTKYNQKFKDKATLTADKSSSTAYMELSSLTSEDSAVYYCARWQDYDVYFDYWGEGTTLTVSS
VL: QIVLSQSPAILSASPGEKVTMTCRASSSVSYIHWFQQKPGSSPKPWIYATSNLASGVPVRFSGSGSGTSYSLTISRVEAEDAATYYCQQWTSCPPTFGGGTKLEIKR
B6: CD20/CD3 BsMab with common VL (SEQ ID NO: 3) Q88L (bispecific antibody, V domains shown)
VH 1: QVQLQQPGAELVKPGASVKMSCKASGYTFTSYNMHWVKQTPGRGLEWIGAIYPGNGDTSYNQKFKGKATLTADKSSSTAYMQLSSLRSEDSAVYYCARSTYYGGDWYFNVWGAGTTVTVSA
VH 2: EVQLQESGAELARPGASVKMSCKASGYTFTSYTMHWVKQRPGEGLEWIGYINPSSGYTKYNQKFKDKATLTADKSSSTAYMELSSLTSEDSAVYYCARWQDYDVYFDYWGEGTTLTVSS
VL: QIVLSQSPAILSASPGEKVTMTCRASSSVSYIHWFQQKPGSSPKPWIYATSNLASGVPVRFSGSGSGTSYSLTISRVEAEDAATYYCLQWTSNPPTFGGGTKLEIKR
B7: CD20/CD3 BsMab with common VL (SEQ ID NO: 3) Q88H (bispecific antibody, V domains shown)
VH 1: QVQLQQPGAELVKPGASVKMSCKASGYTFTSYNMHWVKQTPGRGLEWIGAIYPGNGDTSYNQKFKGKATLTADKSSSTAYMQLSSLRSEDSAVYYCARSTYYGGDWYFNVWGAGTTVTVSA
VH 2: EVQLQESGAELARPGASVKMSCKASGYTFTSYTMHWVKQRPGEGLEWIGYINPSSGYTKYNQKFKDKATLTADKSSSTAYMELSSLTSEDSAVYYCARWQDYDVYFDYWGEGTTLTVSS
VL: QIVLSQSPAILSASPGEKVTMTCRASSSVSYIHWFQQKPGSSPKPWIYATSNLASGVPVRFSGSGSGTSYSLTISRVEAEDAATYYCHQWTSNPPTFGGGTKLEIKR
B8: CD20/CD3 BsMab with common VL (SEQ ID NO: 3) Q88G (bispecific antibody, V domains shown)
VH 1: QVQLQQPGAELVKPGASVKMSCKASGYTFTSYNMHWVKQTPGRGLEWIGAIYPGNGDTSYNQKFKGKATLTADKSSSTAYMQLSSLRSEDSAVYYCARSTYYGGDWYFNVWGAGTTVTVSA
VH 2: EVQLQESGAELARPGASVKMSCKASGYTFTSYTMHWVKQRPGEGLEWIGYINPSSGYTKYNQKFKDKATLTADKSSSTAYMELSSLTSEDSAVYYCARWQDYDVYFDYWGEGTTLTVSS
VL: QIVLSQSPAILSASPGEKVTMTCRASSSVSYIHWFQQKPGSSPKPWIYATSNLASGVPVRFSGSGSGTSYSLTISRVEAEDAATYYCGQWTSNPPTFGGGTKLEIKR
B9: CD20/CD3 BsMab with common VL (SEQ ID NO: 3) Q88P (bispecific antibody, V domains shown)
VH 1: QVQLQQPGAELVKPGASVKMSCKASGYTFTSYNMHWVKQTPGRGLEWIGAIYPGNGDTSYNQKFKGKATLTADKSSSTAYMQLSSLRSEDSAVYYCARSTYYGGDWYFNVWGAGTTVTVSA
VH 2: EVQLQESGAELARPGASVKMSCKASGYTFTSYTMHWVKQRPGEGLEWIGYINPSSGYTKYNQKFKDKATLTADKSSSTAYMELSSLTSEDSAVYYCARWQDYDVYFDYWGEGTTLTVSS
VL: QIVLSQSPAILSASPGEKVTMTCRASSSVSYIHWFQQKPGSSPKPWIYATSNLASGVPVRFSGSGSGTSYSLTISRVEAEDAATYYCPQWTSNPPTFGGGTKLEIKR
B10: anti-CD55 antibody with CD55VH (SEQ ID NO: 14) N52C and VL (SEQ ID NO: 15) (antibody, V domains shown)
VH: QVKLQESGGGLVQPGGSLKLSCAASGFTFSGYGMSWIRQTPDKRLEWVATICSGGSYTYYSDSVKGRFTISRDNVKNTLYLQMSSLKSEDTAMYYCARRNGTLYYYLMDYWGRGTLVTVSS
VL: QSVLTQPPSASGSPGQSVTISCTGTSSDVGGYNYVSWYQQHPGKAPKFMIYDVSKRPSGVSNRFSGSKSGNTASLTISGVQAEDEADYYCSSYTSASTVIFGGGTKLTVL
notes: also called Test 3
B11: anti-CD55 antibody with CD55VH (SEQ ID NO: 14) N52G and VL (SEQ ID NO: 15) (antibody, V domains shown)
VH: QVKLQESGGGLVQPGGSLKLSCAASGFTFSGYGMSWIRQTPDKRLEWVATIGSGGSYTYYSDSVKGRFTISRDNVKNTLYLQMSSLKSEDTAMYYCARRNGTLYYYLMDYWGRGTLVTVSS
VL: QSVLTQPPSASGSPGQSVTISCTGTSSDVGGYNYVSWYQQHPGKAPKFMIYDVSKRPSGVSNRFSGSKSGNTASLTISGVQAEDEADYYCSSYTSASTVIFGGGTKLTVL
notes: also called Test 4
B12: anti-CD55 antibody with CD55VH (SEQ ID NO: 14) N52L and VL (SEQ ID NO: 15) (antibody, V domains shown)
VH: QVKLQESGGGLVQPGGSLKLSCAASGFTFSGYGMSWIRQTPDKRLEWVATILSGGSYTYYSDSVKGRFTISRDNVKNTLYLQMSSLKSEDTAMYYCARRNGTLYYYLMDYWGRGTLVTVSS
VL: QSVLTQPPSASGSPGQSVTISCTGTSSDVGGYNYVSWYQQHPGKAPKFMIYDVSKRPSGVSNRFSGSKSGNTASLTISGVQAEDEADYYCSSYTSASTVIFGGGTKLTVL
notes: also called Test 10
B13: anti-CD55 antibody with CD55VH (SEQ ID NO: 14) N52E and VL (SEQ ID NO: 15) (antibody, V domains shown)
VH: QVKLQESGGGLVQPGGSLKLSCAASGFTFSGYGMSWIRQTPDKRLEWVATIESGGSYTYYSDSVKGRFTISRDNVKNTLYLQMSSLKSEDTAMYYCARRNGTLYYYLMDYWGRGTLVTVSS
VL: QSVLTQPPSASGSPGQSVTISCTGTSSDVGGYNYVSWYQQHPGKAPKFMIYDVSKRPSGVSNRFSGSKSGNTASLTISGVQAEDEADYYCSSYTSASTVIFGGGTKLTVL
notes: also called Test 6
B14: anti-CD55 antibody with CD55VH (SEQ ID NO: 14) N52M and VL (SEQ ID NO: 15) (antibody, V domains shown)
VH: QVKLQESGGGLVQPGGSLKLSCAASGFTFSGYGMSWIRQTPDKRLEWVATIMSGGSYTYYSDSVKGRFTISRDNVKNTLYLQMSSLKSEDTAMYYCARRNGTLYYYLMDYWGRGTLVTVSS
VL: QSVLTQPPSASGSPGQSVTISCTGTSSDVGGYNYVSWYQQHPGKAPKFMIYDVSKRPSGVSNRFSGSKSGNTASLTISGVQAEDEADYYCSSYTSASTVIFGGGTKLTVL
notes: also called Test 8

The target in the first test is CD3 (Homo sapiens (Human), UniProt P07766 23-207; P04234 22-171; P09693 23-182). Nature of the test: cell-based or functional assay.
Sequence of CD3 (P07766 23-207 limits assumed, chain 1 of 3): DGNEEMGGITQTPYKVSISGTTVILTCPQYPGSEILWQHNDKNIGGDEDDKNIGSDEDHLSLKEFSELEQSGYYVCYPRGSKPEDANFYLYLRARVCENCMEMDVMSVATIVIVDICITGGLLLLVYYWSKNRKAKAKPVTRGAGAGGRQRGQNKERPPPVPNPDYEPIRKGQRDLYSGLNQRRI
Sequence of CD3 (P04234 22-171 limits assumed, chain 2 of 3): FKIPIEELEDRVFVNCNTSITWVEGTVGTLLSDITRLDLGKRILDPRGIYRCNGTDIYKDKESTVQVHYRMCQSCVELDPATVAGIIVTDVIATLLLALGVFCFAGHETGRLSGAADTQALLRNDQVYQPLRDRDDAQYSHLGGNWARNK
Sequence of CD3 (P09693 23-182 limits assumed, chain 3 of 3): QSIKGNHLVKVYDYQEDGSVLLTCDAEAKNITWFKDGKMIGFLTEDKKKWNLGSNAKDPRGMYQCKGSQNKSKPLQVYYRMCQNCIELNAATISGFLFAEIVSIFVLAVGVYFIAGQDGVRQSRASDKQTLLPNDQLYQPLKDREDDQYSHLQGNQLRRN
With B1, the “Function % 0.025 ug/ml (T cell activation, CD69 on Jurkat cells with Raji cells, against the unmutated baseline)” value (shortened to “Function % 0.025 ug/ml”) was found to be 9% and the “Function % 2 ug/ml (T cell activation, CD69 on Jurkat cells with Raji cells, against the unmutated baseline)” value (“Function % 2 ug/ml” below) was 65%.
For B2, the “Function % 0.025 ug/ml” value is 27% and the “Function % 2 ug/ml” value came to 95%.
The like results for B3 were, in that order, 8% and 21%.
The corresponding values for B4 are 14% and 75%.
The like results for B5 were, in that order, 16% and 77%.
As to B6, the “Function % 0.025 ug/ml” value was 8% and the “Function % 2 ug/ml” value worked out at 55%.
The like results for B7 were, in that order, 12% and 36%.
The like results for B8 were, in that order, 8% and 39%.
The like results for B9 were, in that order, 7% and 16%.

Another test addresses T1, CD55. Nature of the test: binding at 5 µg/ml against the unmutated antibody (SEQ ID NO: 14 + 15); format not stated.
Turning to B10, the “Function remaining percentage (5 µg/ml)” value came to 32%.
Still for that read-out and setting: as for B11, the figure is 28%; as for B12, 15%; as for B13, 21%.
With B14, the “Function remaining percentage (5 µg/ml)” value stood at 16%.

Source of the values: patent US20220169728A1 (AB THERAPEUTICS, published 2022).
